Results taken from US10568950B1, “Peptides, combination of peptides and scaffolds for use in immunotherapeutic treatment of various cancers” (Immatics Biotechnologies GmbH, priority 2015, dated 2020).

Molecular target: HLA-A*02 (Homo sapiens, UniProt P04439, D140Y/D185E/D98H/E176V/E277Q/G131W/G231S/I119V/I121R/I166T/I218V/N151K/N90K/P208A/P217A/Q86G/Q94H/R138H/R169H)
Experiment: MHC binding assay: UV-ligand exchange, beta2m ELISA (peptide exchange yield)
Settings: binding to HLA-A*02, β2m ELISA
From the text: Candidate peptides for T cell based therapies according to the present invention were further tested for their MHC binding capacity (affinity). The individual peptide-MHC complexes were produced by UV-ligand exchange, where a UV-sensitive peptide is cleaved upon UV-irradiation, and exchanged with the peptide of interest as analyzed. Only peptide candidates that can effectively bind and stabilize the peptide-receptive MHC molecules prevent dissociation of the MHC complexes. To determine the yield of the exchange reaction, an ELISA was performed based on the detection of the light chain (β2m) of stabilized MHC complexes. The assay was performed as generally described in Rodenko et al. (Rodenko et al., 2006).
96 well MAXISorp plates (NUNC) were coated over night with 2 ug/ml streptavidin in PBS at room temperature, washed 4× and blocked for 1 h at 37° C. in 2% BSA containing blocking buffer. […] Peptide-MHC monomers of the UV-exchange reaction were diluted 100 fold in blocking buffer. Samples were incubated for 1 h at 37° C., washed four times, incubated with 2 ug/ml HRP conjugated anti-βm for 1 h at 37° C., washed again and detected with TMB solution that is stopped with […]. Absorption was measured at 450 nm. Candidate peptides that show a high exchange yield (preferably higher than 50%, most preferred higher than 75%) are generally preferred for a generation and production of antibodies or fragments thereof, and/or T cell receptors or fragments thereof, as they show sufficient avidity to the MHC molecules and prevent dissociation of the MHC complexes.

Peptide exchange (MHC class I binding score, peptide exchange yield) | Substance
+++ (50%-75% = +++) | 37 (ALINDILGELVKL; listed as Homo sapiens) [compound 37]
+++ (50%-75% = +++) | 38 (KMQEDLVTL; listed as Homo sapiens) [compound 38]
+++ (50%-75% = +++) | 39 (ALMAVVSGL; listed as Homo sapiens) [compound 39]
+++ (50%-75% = +++) | 40 (SLLALPQDLQA; listed as Homo sapiens) [compound 40]
+++ (50%-75% = +++) | 41 (FVLPLVVTL; listed as Homo sapiens) [compound 41]
+++ (50%-75% = +++) | 42 (VLSPFILTL; listed as Homo sapiens) [compound 42]
++ (20%-49% = ++) | 44 (GLLWQIIKV; listed as Homo sapiens) [compound 44]
+++ (50%-75% = +++) | 45 (VLGPTPELV; listed as Homo sapiens) [compound 45]
+++ (50%-75% = +++) | 46 (SLAKHGIVAL; listed as Homo sapiens) [compound 46]
+++ (50%-75% = +++) | 47 (GLYQAQVNL; listed as Homo sapiens) [compound 47]
++ (20%-49% = ++) | 48 (TLDHKPVTV; listed as Homo sapiens) [compound 48]
+++ (50%-75% = +++) | 49 (LLDESKLTL; listed as Homo sapiens) [compound 49]
++ (20%-49% = ++) | 50 (EYALLYHTL; listed as Homo sapiens) [compound 50]
+++ (50%-75% = +++) | 51 (LLLDGDFTL; listed as Homo sapiens) [compound 51]
+++ (50%-75% = +++) | 52 (ELLSSIFFL; listed as Homo sapiens) [compound 52]
+++ (50%-75% = +++) | 53 (SLLSHVIVA; listed as Homo sapiens) [compound 53]
+++ (50%-75% = +++) | 54 (FINPKGNWLL; listed as Homo sapiens) [compound 54]
++ (20%-49% = ++) | 55 (IASAIVNEL; listed as Homo sapiens) [compound 55]
++ (20%-49% = ++) | 56 (KILDLTRVL; listed as Homo sapiens) [compound 56]
++ (20%-49% = ++) | 57 (VLISSTVRL; listed as Homo sapiens) [compound 57]
++ (20%-49% = ++) | 58 (ALDDSLTSL; listed as Homo sapiens) [compound 58]

Peptide exchange (MHC class I binding score, peptide exchange yield) | Substance
+++ (50%-75% = +++) | 59 (ALTKILAEL; listed as Homo sapiens) [compound 59]
++ (20%-49% = ++) | 60 (FLIDTSASM; listed as Homo sapiens) [compound 60]
++ (20%-49% = ++) | 61 (HLPDFVKQL; listed as Homo sapiens) [compound 61]
+++ (50%-75% = +++) | 62 (SLFNQEVQI; listed as Homo sapiens) [compound 62]
+ (<20% = +) | 63 (TLSSERDFAL; listed as Homo sapiens) [compound 63]
++ (20%-49% = ++) | 64 (GLSSSSYEL; listed as Homo sapiens) [compound 64]
+++ (50%-75% = +++) | 65 (KLDGICWQV; listed as Homo sapiens) [compound 65]
+++ (50%-75% = +++) | 66 (FITDFYTTV; listed as Homo sapiens) [compound 66]
++ (20%-49% = ++) | 67 (GVIETVTSL; listed as Homo sapiens) [compound 67]
+++ (50%-75% = +++) | 69 (GIYDGILHSI; listed as Homo sapiens) [compound 69]
+++ (50%-75% = +++) | 70 (GLFSQHFNL; listed as Homo sapiens) [compound 70]
+++ (50%-75% = +++) | 71 (GLITVDIAL; listed as Homo sapiens) [compound 71]
+++ (50%-75% = +++) | 72 (GMIGFQVLL; listed as Homo sapiens) [compound 72]
++ (20%-49% = ++) | 74 (ILDETLENV; listed as Homo sapiens) [compound 74]
+++ (50%-75% = +++) | 75 (ILDNVKNLL; listed as Homo sapiens) [compound 75]
+++ (50%-75% = +++) | 76 (ILLDESNFNHFL; listed as Homo sapiens) [compound 76]
+++ (50%-75% = +++) | 77 (IVLSTIASV; listed as Homo sapiens) [compound 77]
+++ (50%-75% = +++) | 78 (LLWGHPRVA; listed as Homo sapiens) [compound 78]
++++ (>= 75% = ++++) | 79 (SLVPLQILL; listed as Homo sapiens) [compound 79]
+++ (50%-75% = +++) | 80 (TLDEYLTYL; listed as Homo sapiens) [compound 80]
++ (20%-49% = ++) | 81 (VLFLGKLLV; listed as Homo sapiens) [compound 81]

Peptide exchange (MHC class I binding score, peptide exchange yield) | Substance
++ (20%-49% = ++) | 82 (VLLRVLIL; listed as Homo sapiens) [compound 82]
+++ (50%-75% = +++) | 83 (ELLEYLPQL; listed as Homo sapiens) [compound 83]
+++ (50%-75% = +++) | 84 (FLEEEITRV; listed as Homo sapiens) [compound 84]
+++ (50%-75% = +++) | 85 (STLDGSLHAV; listed as Homo sapiens) [compound 85]
+++ (50%-75% = +++) | 87 (YLTEVFLHVV; listed as Homo sapiens) [compound 87]
+++ (50%-75% = +++) | 88 (ILLNTEDLASL; listed as Homo sapiens) [compound 88]
+++ (50%-75% = +++) | 89 (YLVAHNLLL; listed as Homo sapiens) [compound 89]
+ (<20% = +) | 90 (GAVAEEVLSSI; listed as Homo sapiens) [compound 90]
+ (<20% = +) | 91 (SSLEPQIQPV; listed as Homo sapiens) [compound 91]
++ (20%-49% = ++) | 92 (LLRGPPVARA; listed as Homo sapiens) [compound 92]
+++ (50%-75% = +++) | 93 (SLLTQPIFL; listed as Homo sapiens) [compound 93]
+++ (50%-75% = +++) | 321 (SLWFKPEEL; listed as Homo sapiens) [compound 321]
+++ (50%-75% = +++) | 323 (ILSVVNSQL; listed as Homo sapiens) [compound 323]
++++ (>= 75% = ++++) | 324 (AIFDFCPSV; listed as Homo sapiens) [compound 324]
++ (20%-49% = ++) | 325 (RLLPKVQEV; listed as Homo sapiens) [compound 325]
+++ (50%-75% = +++) | 326 (SLLPLVWKI; listed as Homo sapiens) [compound 326]
+++ (50%-75% = +++) | 327 (SIGDIFLKY; listed as Homo sapiens) [compound 327]
++ (20%-49% = ++) | 328 (SVDSAPAAV; listed as Homo sapiens) [compound 328]
++ (20%-49% = ++) | 329 (FAWEPSFRDQV; listed as Homo sapiens) [compound 329]
+++ (50%-75% = +++) | 330 (FLWPKEVEL; listed as Homo sapiens) [compound 330]
